Test results from publication PMC3794620, “The Pyridoxal 5′-Phosphate (PLP)-Dependent Enzyme Serine Palmitoyltransferase (SPT): Effects of the Small Subunits and Insights from Bacterial Mimics of Human hLCB2a HSAN1 Mutations” (BioMed Research International, 2013).

Key:
Sp SPT [1] = target: T1, Sp SPT (Sphingomonas paucimobilis, UniProt Q93UV0); experiment: UV-visible spectroscopy of internal aldimine; format: binding; details: covalent (imine to Lys265), 40 μM enzyme, 20 mM potassium phosphate pH 7.5, 150 mM NaCl, 25 °C
T1 construct: full-length soluble enzyme, pET28a, C-terminal His6 tag, E. coli BL21(DE3), Ni-NTA and gel filtration, homodimer ~90 kDa, PLP holoform
T1 sequence (Q93UV0 1-420): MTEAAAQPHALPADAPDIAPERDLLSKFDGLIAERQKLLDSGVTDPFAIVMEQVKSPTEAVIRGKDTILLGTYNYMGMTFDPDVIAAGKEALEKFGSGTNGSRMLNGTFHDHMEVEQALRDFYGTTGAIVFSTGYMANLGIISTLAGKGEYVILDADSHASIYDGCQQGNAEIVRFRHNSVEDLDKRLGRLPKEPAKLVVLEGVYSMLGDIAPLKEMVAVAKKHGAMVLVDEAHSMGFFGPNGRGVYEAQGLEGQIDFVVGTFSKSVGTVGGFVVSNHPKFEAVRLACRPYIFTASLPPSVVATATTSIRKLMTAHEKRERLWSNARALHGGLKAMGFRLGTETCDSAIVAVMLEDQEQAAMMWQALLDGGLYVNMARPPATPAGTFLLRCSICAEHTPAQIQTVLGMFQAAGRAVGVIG

N[C@@H](CO)C(=O)O = test system: T2, N[C@@H](CO)C(=O)O; experiment: DTNB assay of CoASH release, Michaelis-Menten fit; format: biochemical, Sphingomonas paucimobilis; details: co-substrate palmitoyl-CoA
T2 construct: full-length soluble enzyme, pET28a, C-terminal His6 tag, E. coli BL21(DE3), Ni-NTA and gel filtration, homodimer ~90 kDa, PLP holoform
Description: (§1) DTNB assay of CoASH release, Michaelis-Menten fit on Sp SPT

[2] = test system: T3, CCCCCCCCCCCCCCCC(=O)SCCNC(=O)CCNC(=O)[C@H](O)C(C)(C)COP(=O)(O)OP(=O)(O)OC[C@H]1O[C@@H](n2cnc3c(N)ncnc32)[C@H](O)[C@@H]1OP(=O)(O)O; experiment: DTNB assay of CoASH release, Michaelis-Menten fit; format: biochemical, Sphingomonas paucimobilis; details: co-substrate L-serine
T3 construct: full-length soluble enzyme, pET28a, C-terminal His6 tag, E. coli BL21(DE3), Ni-NTA and gel filtration, homodimer ~90 kDa, PLP holoform
Description: as §1

Sp SPT [3] = target: T1, Sp SPT; experiment: UV-visible titration, absorbance change at […] nm (external aldimine); format: binding; details: read-out: Kd ^L-ser
Sp SPT [4] = target: T4, Sp SPT (Sphingomonas paucimobilis, UniProt Q93UV0, V246M); experiment: as above; format: binding; details: read-out: Kd ^L-ser
T4 construct: full-length soluble enzyme, pET28a, C-terminal His6 tag, E. coli BL21(DE3), Ni-NTA and gel filtration, homodimer ~90 kDa, PLP holoform
T4 sequence (Q93UV0 1-420 V246M): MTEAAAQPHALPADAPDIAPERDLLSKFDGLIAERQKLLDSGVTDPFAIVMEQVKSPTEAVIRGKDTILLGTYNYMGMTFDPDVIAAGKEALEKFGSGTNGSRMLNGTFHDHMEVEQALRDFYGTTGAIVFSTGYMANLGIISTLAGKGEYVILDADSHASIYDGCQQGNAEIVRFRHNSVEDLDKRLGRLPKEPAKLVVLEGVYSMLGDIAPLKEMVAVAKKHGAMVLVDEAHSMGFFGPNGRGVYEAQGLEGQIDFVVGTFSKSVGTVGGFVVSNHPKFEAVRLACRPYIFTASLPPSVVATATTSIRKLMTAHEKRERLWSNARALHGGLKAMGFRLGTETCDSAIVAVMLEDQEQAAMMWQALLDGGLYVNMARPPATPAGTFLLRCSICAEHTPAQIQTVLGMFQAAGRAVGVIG

Sp SPT [5] = target: T5, Sp SPT (Sphingomonas paucimobilis, UniProt Q93UV0, G385F); experiment: as above; format: binding; details: read-out: Kd ^L-ser
T5 construct: full-length soluble enzyme, pET28a, C-terminal His6 tag, E. coli BL21(DE3), Ni-NTA and gel filtration, homodimer ~90 kDa, PLP holoform
T5 sequence (Q93UV0 1-420 G385F): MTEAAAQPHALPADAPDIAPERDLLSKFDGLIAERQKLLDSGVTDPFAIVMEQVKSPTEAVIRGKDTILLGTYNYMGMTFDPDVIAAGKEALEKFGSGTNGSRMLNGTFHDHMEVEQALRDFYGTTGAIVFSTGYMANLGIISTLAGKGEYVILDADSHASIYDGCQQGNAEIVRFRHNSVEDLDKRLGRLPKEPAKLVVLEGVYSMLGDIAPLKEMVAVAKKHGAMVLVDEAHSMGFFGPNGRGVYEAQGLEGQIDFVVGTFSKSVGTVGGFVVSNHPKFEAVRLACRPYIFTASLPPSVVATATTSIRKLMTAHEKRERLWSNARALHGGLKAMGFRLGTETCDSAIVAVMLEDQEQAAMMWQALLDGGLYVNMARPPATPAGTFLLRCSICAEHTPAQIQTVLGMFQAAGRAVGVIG

Sp SPT [6] = target: T1, Sp SPT; experiment: UV-visible spectroscopy, quinonoid peak at ~[…] nm; format: binding; details: 1.5 mM analogue, 50 mM L-serine, 40 μM enzyme, 25 °C, 15 min
[7] = substrate: CCCCCCCCCCCCCCCC(=O)SCCNC(=O)CCNC(=O)[C@H](O)C(C)(C)COP(=O)(O)OP(=O)(O)OC[C@H]1O[C@@H](n2cnc3c(N)ncnc32)[C@H](O)[C@@H]1OP(=O)(O)O; experiment: DTNB assay of CoASH release, Michaelis-Menten fit; format: biochemical, Sphingomonas paucimobilis; details: co-substrate L-serine
Description: as §1

[8] = substrate: N[C@@H](CO)C(=O)O; experiment: DTNB assay of CoASH release, Michaelis-Menten fit; format: biochemical, Sphingomonas paucimobilis; details: co-substrate palmitoyl-CoA
Description: as §1

[9] = target: the molecule itself; experiment: SEC; size exclusion chromatography of the purified enzymes; data not shown

Cc1ncc(COP(=O)(O)O)c(C=O)c1O [pyridoxal 5′-phosphate]
UV-visible spectroscopy of internal aldimine (Sp SPT [1]): characteristic of the holo-, PLP-bound internal aldimine form of the enzyme

Sp SPT (Sphingomonas paucimobilis; G385F)
Km (N[C@@H](CO)C(=O)O): 3000 ± 500 µM
kcat (N[C@@H](CO)C(=O)O): 41 ± 2.0 × 10^-2 s^-1
kcat/Km (N[C@@H](CO)C(=O)O): 136 M⁻¹ s⁻¹
Km [2]: 52.2 ± 8.0 µM
kcat [2]: 41 ± 2.0 × 10^-2 s^-1
kcat/Km [2]: 7850 M⁻¹ s⁻¹

N[C@@H](CO)C(=O)O [L-serine]
Kd (Sp SPT [3]): 1100 ± 100 µM
Kd (Sp SPT [4]): 1500 ± 100 µM
Kd (Sp SPT [5]): 4700 ± 100 µM

CCCCCCCCCCCCCCCC(=O)CSCCNC(=O)CCNC(=O)[C@H](O)C(C)(C)COP(=O)(O)OP(=O)(O)OC[C@H]1O[C@@H](n2cnc3c(N)ncnc32)[C@H](O)[C@@H]1OP(=O)(O)O [S-(2-oxoheptadecyl)-CoA]
UV-visible spectroscopy, quinonoid peak at ~495 nm (Sp SPT [6]): Addition of the analogue to the PLP-L-serine external aldimine form of the wild-type SPT

Sp SPT (Sphingomonas paucimobilis; V246M)
Km (N[C@@H](CO)C(=O)O): 2500 ± 200 µM
kcat (N[C@@H](CO)C(=O)O): 44 ± 1.2 × 10^-2 s^-1
kcat/Km (N[C@@H](CO)C(=O)O): 176 M⁻¹ s⁻¹
Km [2]: 128.0 ± 10.0 µM
kcat [2]: 44 ± 1.2 × 10^-2 s^-1
kcat/Km [2]: 3440 M⁻¹ s⁻¹

B1: Sp SPT (Sphingomonas paucimobilis) (protein)
chain: MTEAAAQPHALPADAPDIAPERDLLSKFDGLIAERQKLLDSGVTDPFAIVMEQVKSPTEAVIRGKDTILLGTYNYMGMTFDPDVIAAGKEALEKFGSGTNGSRMLNGTFHDHMEVEQALRDFYGTTGAIVFSTGYMANLGIISTLAGKGEYVILDADSHASIYDGCQQGNAEIVRFRHNSVEDLDKRLGRLPKEPAKLVVLEGVYSMLGDIAPLKEMVAVAKKHGAMVLVDEAHSMGFFGPNGRGVYEAQGLEGQIDFVVGTFSKSVGTVGGFVVSNHPKFEAVRLACRPYIFTASLPPSVVATATTSIRKLMTAHEKRERLWSNARALHGGLKAMGFRLGTETCDSAIVAVMLEDQEQAAMMWQALLDGGLYVNMARPPATPAGTFLLRCSICAEHTPAQIQTVLGMFQAAGRAVGVIG
notes: full-length soluble enzyme, pET28a, C-terminal His6 tag, E. coli BL21(DE3), Ni-NTA and gel filtration, homodimer ~90 kDa, PLP holoform
Km [7]: 35.6 ± 2.0 µM
kcat [7]: 114 ± 2.0 × 10^-2 s^-1
kcat/Km [7]: 32000 M⁻¹ s⁻¹
Km [8]: 1600 ± 90 µM
kcat [8]: 114 ± 2.0 × 10^-2 s^-1
kcat/Km [8]: 712 M⁻¹ s⁻¹

B2: Sphingomonas paucimobilis serine palmitoyltransferase G385F (mimic of hLCB2a I504F) (enzyme)
chain: MTEAAAQPHALPADAPDIAPERDLLSKFDGLIAERQKLLDSGVTDPFAIVMEQVKSPTEAVIRGKDTILLGTYNYMGMTFDPDVIAAGKEALEKFGSGTNGSRMLNGTFHDHMEVEQALRDFYGTTGAIVFSTGYMANLGIISTLAGKGEYVILDADSHASIYDGCQQGNAEIVRFRHNSVEDLDKRLGRLPKEPAKLVVLEGVYSMLGDIAPLKEMVAVAKKHGAMVLVDEAHSMGFFGPNGRGVYEAQGLEGQIDFVVGTFSKSVGTVGGFVVSNHPKFEAVRLACRPYIFTASLPPSVVATATTSIRKLMTAHEKRERLWSNARALHGGLKAMGFRLGTETCDSAIVAVMLEDQEQAAMMWQALLDGGLYVNMARPPATPAFTFLLRCSICAEHTPAQIQTVLGMFQAAGRAVGVIG
modifications: PLP cofactor covalently bound as an imine to Lys265
notes: serine palmitoyltransferase of Sphingomonas paucimobilis with G385F, made on pET 28a/Sp SPT; The PDB entries are of the wild-type parent; also called Sp SPT G385F; SPT G385F
stoichiometry N [9]: 2

B3: Sphingomonas paucimobilis serine palmitoyltransferase V246M (mimic of hLCB2a V359M) (enzyme)
chain: MTEAAAQPHALPADAPDIAPERDLLSKFDGLIAERQKLLDSGVTDPFAIVMEQVKSPTEAVIRGKDTILLGTYNYMGMTFDPDVIAAGKEALEKFGSGTNGSRMLNGTFHDHMEVEQALRDFYGTTGAIVFSTGYMANLGIISTLAGKGEYVILDADSHASIYDGCQQGNAEIVRFRHNSVEDLDKRLGRLPKEPAKLVVLEGVYSMLGDIAPLKEMVAVAKKHGAMVLVDEAHSMGFFGPNGRGMYEAQGLEGQIDFVVGTFSKSVGTVGGFVVSNHPKFEAVRLACRPYIFTASLPPSVVATATTSIRKLMTAHEKRERLWSNARALHGGLKAMGFRLGTETCDSAIVAVMLEDQEQAAMMWQALLDGGLYVNMARPPATPAGTFLLRCSICAEHTPAQIQTVLGMFQAAGRAVGVIG
modifications: PLP cofactor covalently bound as an imine to Lys265
notes: serine palmitoyltransferase of Sphingomonas paucimobilis with V246M, made on pET 28a/Sp SPT; The PDB entries are of the wild-type parent; also called Sp SPT V246M; SPT V246M
stoichiometry N [9]: 2
